Laboratory results published in US20150203579A1 (Regeneron, published 2015).

T1: recombinant cynomolgus monkey PD-1 expressed with a C-terminal myc-myc-hexahistidine tag (cynomolgus monkey (Macaca fascicularis))
T1 construct: monomeric; also called MfPD-1-MMH
T1 chain: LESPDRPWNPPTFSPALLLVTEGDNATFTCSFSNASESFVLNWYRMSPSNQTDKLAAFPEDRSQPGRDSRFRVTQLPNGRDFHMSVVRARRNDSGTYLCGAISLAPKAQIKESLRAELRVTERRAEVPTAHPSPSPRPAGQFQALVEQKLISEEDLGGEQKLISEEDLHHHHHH


Columns and labels:
[1] = molecular target: T2, human PD-1 dimer (human PD-1-mFc or human PD-1-hFc) (human, UniProt Q15116 25-170); assay: SPR, mAb captured, 37C;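 further: Real-time Biacore biosensor, PD-1 dimer flowed over anti-PD-1 antibody surface, rate constants fitted to a 1:1 model, KD derived as kd/ka and t½ as ln2/(60·kd)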
T2 construct: also called hPD-1-mFc; hPD1-hFc
T2 sequence (Q15116 25-170 C93S): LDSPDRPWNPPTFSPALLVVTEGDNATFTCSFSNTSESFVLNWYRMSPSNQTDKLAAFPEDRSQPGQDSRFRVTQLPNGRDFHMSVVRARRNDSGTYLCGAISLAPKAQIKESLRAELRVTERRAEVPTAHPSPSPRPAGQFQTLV

[2] = molecular target: T3, recombinant human PD-1 expressed with a C-terminal myc-myc-hexahistidine tag (human); assay: SPR, mAb captured, 37C;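 further: rate constants from fitting sensorgrams to a 1:1 binding model, KD derived as kd divided by ka and half-life as ln2/(60·kd)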
T3 construct: monomeric; also called hPD-1-MMH; human PD-1-MMH

[3] = molecular target: T2, human PD-1 dimer (human PD-1-mFc or …); assay: SPR, mAb captured, 25C
[4] = molecular target: T1, recombinant cynomolgus monkey PD-1 …; assay: SPR, mAb captured, 37C;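 further: rate constants from fitting sensorgrams to a 1:1 binding model, with Kd computed as koff/kon and half-life as ln2/(60·koff), PD-1 flowing over anti-PD-1 antibody surfaces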
[5] = molecular target: T1, recombinant cynomolgus monkey PD-1 …; assay: SPR, mAb captured, 25C

Row | Kd [1] [nM] | koff [1] [s⁻¹] | kon [1] [M⁻¹ s⁻¹] | t½ [1] [min] | Kd [2] [nM] | koff [2] [s⁻¹] | kon [2] [M⁻¹ s⁻¹] | t½ [2] [min] | Kd [3] [nM] | koff [3] [s⁻¹] | kon [3] [M⁻¹ s⁻¹] | t½ [3] [min] | Kd [4] [nM] | koff [4] [s⁻¹] | kon [4] [M⁻¹ s⁻¹] | t½ [4] [min] | Kd [5] [nM] | koff [5] [s⁻¹] | kon [5] [M⁻¹ s⁻¹] | t½ [5] [min] | Binder
1 | 0.175 | 0.000115 | 660000 | 100 | 7.48 | 0.0017 | 227000 | 7 | 0.122 | 5.4e-05 | 441000 | 214 | 10.5 | 0.00223 | 213000 | 5 | 3.86 | 0.000551 | 143000 | 21 | H4H7798N (antibody, human IgG4 S228P, kappa, V domains shown) VH: EVQLLESGGVLVQPGGSLRLSCAASGFTFSNFGMTWVRQAPGKGLEWVSGISGGGRDTYFADSVKGRFTISRDNSKNTLYLQMNSLKGEDTAVYYCVKWGNIYFDYWGQGTLVTVSS VL: DIQMTQSPSSLSASVGDSITITCRASLSINTFLNWYQQKPGKAPNLLIYAASSLHGGVPSRFSGSGSGTDFTLTIRTLQPEDFATYYCQQSSNTPFTFGPGTVVDFRR
2 | 2.27 | 0.000702 | 310000 | 16 | 26.6 | 0.0111 | 418000 | 1 | 0.651 | 0.000138 | 212000 | 84 | 28.9 | 0.0134 | 462000 | 0.9 | 10.6 | 0.00131 | 124000 | 8.8 | H4xH9135P2 (antibody, V domains shown, Human IgG4 Fc with 2 or more amino acid changes (H4xH)) VH: EVQLVESGGSVVRPGGSLRLSCVVSGFTFEDYGLSWVRQIPGKGLEWVSGISWTGGNTGYADSVKGRFTISRDNAKNSLYLQMNSLRAEDTALYHCTRDRQWLMQWYFDYWGQGTLVTVSS VL: not shown
3 | 3.05 | 0.0011 | 361000 | 10 | 23.2 | 0.0086 | 370000 | 1.3 | 0.798 | 0.000188 | 236000 | 61 | 16.8 | 0.00697 | 415000 | 1.7 | 7 | 0.000897 | 128000 | 13 | H4xH9048P2 (antibody, V domains shown, Human IgG4 Fc with 2 or more amino acid changes (H4xH)) VH: QVQLVQSGAEVKRPGSSVKVSCKVSGVTFRNFAIIWVRQAPGQGLEWMGGIIPFFSAANYAQSFQGRVTITPDESTSTAFMELASLRSEDTAVYYCAREGERGHTYGFDYWGQGTLVTVSS VL: not shown
4 | 3.68 | 0.000686 | 186000 | 17 | 42 | 0.00436 | 104000 | 2.6 | 1.59 | 0.000133 | 83700 | 87 | 46.1 | 0.00418 | 90600 | 2.8 | 17.7 | 0.000649 | 36800 | 18 | H4xH9128P2 (antibody, V domains shown, Human IgG4 Fc with 2 or more amino acid changes (H4xH)) VH: QVQLQESGPGLVKPSETLSLTCTVSGGSISSYHWNWIRQSPGKGLEWIGYIYYIGSTDYNPSLESRVTISVDTSKNQFSLKLSSVTAADTAVYYCARVPVGATGASDVWGQGTMVTVSS VL: not shown
5 | 3.8 | 0.000909 | 240000 | 13 | 43.5 | 0.0104 | 240000 | 1.1 | 0.992 | 0.000162 | 163000 | 71 | 51.4 | 0.0123 | 240000 | 0.9 | 22.2 | 0.00166 | 75000 | 6.9 | H4xH9119P2 (antibody, V domains shown, Human IgG4 Fc with 2 or more amino acid changes (H4xH)) VH: EVQLVESGGGLVQPGRSLRLSCAASGFTFEDYAMHWVRQAPGKGLEWVSGIGWSNVKIGYADSVKGRFTISRDNVRNSLYLQMNSLRTEDTAFYYCVKAYTSMLTLYFDYWGQGTLVTVSS VL: not shown
6 | 0.596 |  |  | 26 | 15.7 |  |  | 1.2 | 0.217 |  |  | 96 | 9.41 |  |  | 1.2 | 3.09 |  |  | 8.7 | H4xH8999P (antibody, V domains shown, Human IgG4 Fc with 2 or more amino acid changes (H4xH)) VH: QLQLQESGPGLVQPSETLSLTCTVSGDSISSTAYHWDWIRQPPGKGLEWIGTITYNGNTYFNPSLKSRVTISVDTSKNQFSLKLLSMTAAETAVFYCARHLGYNSDFFPFDFWGQGTLVTVSS VL: not shown
7 | 3.5 | 0.000921 | 263000 | 13 | 29.5 | 0.00668 | 226000 | 1.7 | 0.862 | 0.000129 | 150000 | 89 | 39.7 | 0.0088 | 222000 | 1.3 | 13.1 | 0.000915 | 69900 | 13 | H4xH9037P (antibody, V domains shown, Human IgG4 Fc with 2 or more amino acid changes (H4xH); also called H4xH9037P2) VH: EVQLVESGGGLVQPGGSLRLSCAASGFTFDDYAMHWVRQAPGKGLEWVSGIGWSSGSIGYADSVKGRFTISRDNAKNSLYLQMDSLRPEDSALYYCAKAYTFMITLYFDYWGQGTLVTVSS VL: not shown
8 | ≤ 0.181 |  |  | ≥ 1160 | 62.6 |  |  | 1.4 | 0.796 |  |  | 412 | 23.5 |  |  | 0.8 | 23.8 |  |  | 4.6 | H4xH9008P (antibody, V domains shown, Human IgG4 Fc with 2 or more amino acid changes (H4xH)) VH: EVQLVESGGGLVRPGGSLRLSCAASGFTFSTYAMAWVRQTPGKGLEGVSAIGGSGDSTYYVDSVKGRFTISRDNSKSTLFLQMNSLRAEDTAVYYCVKVRNYDGSFDIWGQGTMVTVSS VL: not shown
9 | 3.58 | 0.000571 | 160000 | 20 | 94 | 0.0123 | 131000 | 0.9 | 2.4 | 0.000158 | 65800 | 73 | 83.7 | 0.0143 | 171000 | 0.8 | 43.1 | 0.00124 | 28600 | 9.3 | H4xH9145P2 (antibody, V domains shown, Human IgG4 Fc with 2 or more amino acid changes (H4xH)) VH: QVQLVESGGGVVQPGRSLRLSCSASGFTFSAYAMHWVRQAPGKGLEWVAAISYGGSDKYYADSVKGRFTISRDNSKNTLYLQMNSLRTDDTAVYYCAKSAHWNFFFDYWGQGTLVTVSS VL: not shown
10 | 5.96 | 0.000482 | 80800 | 24 | 102 | 0.00701 | 68800 | 1.6 | 1.82 | 0.000119 | 65200 | 97 | 107 | 0.00748 | 69800 | 1.5 | 34.1 | 0.00108 | 31700 | 11 | H4xH9120P2 (antibody, V domains shown, Human IgG4 Fc with 2 or more amino acid changes (H4xH)) VH: QVQLVQSGAEVKRPGASVKVSCKASGYTFTSFYMYWVRQAPGQGLEWMGIINPSDGSTSNAQKFQGRVTMTRDTSTSTVYMELSSLRSEDTAVYYCARRVAGDIFDIWGQGTMVTVSS VL: not shown
11 | 5.13 | 0.0011 | 214000 | 11 | 662 | 0.0532 | 80400 | 0.2 | 1.75 | 0.00016 | 91300 | 72 | 7540 | 0.105 | 14000 | 0.1 | 113 | 0.00705 | 62500 | 1.6 | H4xH9045P (antibody, V domains shown, Human IgG4 Fc with 2 or more amino acid changes (H4xH); also called H4xH9045P2) VH: EVQLVESGGGLVQPGRSLRLSCAASGFTFDDYDMHWVRQAPGKGLEWVSGSGWNRGSLGYADSVKGRFTISRDNAKKSLYLQMNSVRVEDTALYYCAKGFVVVSAAYFDYWGQGTLVTVSS VL: not shown
12 | 1.65 | 0.000264 | 160000 | 44 | 104 | 0.00664 | 64100 | 1.7 | 0.615 | 9.25e-05 | 150000 | 125 | 88.3 | 0.00689 | 78000 | 1.7 | 22.4 | 0.00148 | 65900 | 8 | H4H7795N2 (antibody, human IgG4 S228P, kappa, V domains shown) VH: EVQVVESGGGLVEPGRSLRLSCKASGFTFDDYAMHWVRQTPGKALEWVSGISWSGNNIGYADSVKGRFTISKDDAKNSLYLQMNSLRPEDTALYYCTKDISITGTLDAFDVWGQGTMVTVSS VL: DIQMTQSPISVSASVGDRVTITCRASQGISNWLAWYQQKPGIAPKLLIYSASSLQSGVPSRFRGSGSGTDFTLTIGSLQPEDFATYYCQQAHSFPLTFGGGTKVEIKR
